Assay [1] addresses T1, human EGFRvIII protein on the surface of U87MG-hEGFRvIII cells (human, UniProt P00533 25-1210).
T1 construct: whole, on cells; Stably transfected U87MG cells; also called mutant EGFRvIII protein; U87MG-EGFRvIII
Description: FACS on U87MG-hEGFRvIII cells. How it is done:
(§1) The cells are washed twice with the HBSS buffer and are counted, and then the cells are diluted with the HBSS buffer to 2×10⁶ cells/ml, added with 1% goat serum blocking solution, with the percentage being the mass percentage, and incubated on ice for 30 minutes, and then centrifugally washed twice with the HBSS buffer. The collected cells are suspended to 2×10⁶ cells/mL with an FACS buffer (HBSS+1% BSA, with the percentage being the mass percentage), added to a 96-well FACS reaction plate at 100 μL/well, then added with 100 μL/well of the purified EGFRvIII antibody (samples to be tested) obtained in example 2, and incubated on ice for 2 hours. The plate is centrifugally washed twice with the FACS buffer, added with 100 μL/well of a fluorescence (Alexa 488) labeled secondary antibody (purchased from Invitrogen), and then incubated on ice for 1 hour. The plate is centrifugally washed 3 times with the FACS buffer, added with 100 μL/well of a fixing solution [4% (v/v) paraformaldehyde] for suspending the cells, and centrifugally washed twice with the FACS buffer after 10 minutes. The cells are suspended in 100 μL of the FACS buffer, and the results are detected and analyzed by FACS (FACS Calibur, purchased from BD). Data analysis is performed by using the software (CellQuest) to obtain the mean fluorescence intensity (MFI) of the cells. Data is further analyzed by using the software (GraphPad Prism5) to perform data fitting and calculate EC50. […] A431 cells (human epidermal cell cancer cell lines) have a large amount of wild-type EGFR protein expressed on the surface thereof. […] U87MG cells (human glioma cell lines) have a small amount of wild-type EGFR protein expressed on the surface thereof, while HEB cells (human glioma cell lines) have a high level of wild-type EGFR protein expression on the surface thereof.

Assay [2] has as its target T2, biotin-labeled recombinant EGFRvIII protein (UniProt P00533 25-645, biotin-labeled).
T2 construct: the construct is not described
In words: competitive ELISA; competitor Control antibody 01. How it is done: (§2) The purified antibodies to be tested are diluted with PBS to 1 μg/mL, coated onto a 96-well high-adsorption ELISA plate at 50 μL/well at 4° C. overnight, and then blocked with 250 μL of the blocking solution [PBS containing 0.01% (v/v) Tween20 and 1% (w/w) BSA] for one hour at room temperature, and each well is added with 0.05 μg/mL of the biotin-labeled recombinant EGFRvIII protein. Simultaneously, 5 μg/mL of the competitive antibody (i.e., the purified EGFRvIII antibody obtained in example 2) is added thereto, and incubated at 25° C.−37° C. for 1 to 2 hours. The plate is washed 3 times with the plate washing solution [PBS containing 0.01% (v/v) Tween20], and added with HRP (horseradish peroxidase) labeled streptavidin (purchased from Sigma). The plate is incubated for 0.5 hour at 37° C., and then washed 3 times with the plate washing solution [PBS containing 0.01% (v/v) Tween20]. The plate is added with 100 μL of TMB substrate/well, incubated for 30 minutes at room temperature, and then added with 100 μL of stopping solution (1.0N HCl)/well. A450 nm value is read using an ELISA plate reader (SpectraMax 384 plus, purchased from Molecular Device), and the results are shown in FIG. 6.
(In general: An ELISA detects its analyte on a solid surface through an enzyme-linked reagent.)

Assay [3] deals with T1, human EGFRvIII protein on the surface …. Description: immunohistochemical staining, human glioma tissue chip.
In assay [4] the target is T3, wild-type human EGFR protein on the surface of cells (A431, HEB, U87MG) (human, UniProt P00533 25-1210).
T3 construct: whole, on cells; One molecule for all three cell lines; the cell line is named under assay; also called wild-type EGFR
In words: FACS on A431 cells. How it is done: as §1, with “The” for “The cells are washed twice with the HBSS buffer and are counted, and then the cells are diluted with the HBSS buffer to 2×10⁶ cells/ml, added with 1% goat serum blocking solution, with the percentage being the mass percentage, and incubated on ice for 30 minutes, and then centrifugally washed twice with the HBSS buffer. The”

Assay [5] concerns the target T2, biotin-labeled recombinant EGFRvIII …. Description: competitive ELISA; competitor Control antibody 02. How it is done:
as §2

Assay [6] has the same target. Description: competitive ELISA; competitor Murine anti-7E5. How it is done: as §2
For assay [7] the target is unchanged. Description: competitive ELISA; competitor Murine anti-64F1. How it is done: as §2
The target is the same in assay [8]. Description: competitive ELISA; competitor Murine anti-75G7. How it is done: as §2
For assay [9] the target is unchanged. Description: competitive ELISA; competitor Murine anti-63A10. How it is done:
as §2

In assay [10] the target is T4, human EGFRvIII-hFc protein (human, UniProt P00533 25-645).
T4 construct: extracellular domain; made in HEK293 cells, purified on protein A; also called immunogen A; hFc-tagged EGFRvIII protein; not shown: human IgG Fc fragment (hFc) of the pCpC vector
Description: ELISA, plate coated with human EGFRvIII-hFc, HRP secondary antibody, absorbance at 450 nm. How it is done:
The purified immunogen A (EGFRvIII-hFc) obtained in example 1 (for the preparation method, see step (I) in example 1) is diluted with PBS to a final concentration of 1.0 μg/mL, and then added to a 96-well ELISA plate at 100 μl/well. The plate is sealed with a plastic film and incubated at 4° C. overnight. The next day, the plate is washed twice with a plate washing solution [PBS+0.01% (v/v) Tween20], and added with a blocking solution [PBS+0.01% (v/v) Tween20+1% (w/w) BSA] for blocking 2 hours at room temperature. […] The plate is incubated for 2 hours at 37° C., and then washed 3 times with the plate washing solution [PBS+0.01% (v/v) Tween20]. The plate is added with an HRP (horseradish peroxidase) labeled secondary antibody (purchased from Sigma), incubated at 37° C. for 2 hours, and then washed 3 times with the plate washing solution [PBS+0.01% (v/v) Tween20]. The plate is added with 100 μl of TMB substrate/well, incubated for 30 minutes at room temperature, and then added with 100 μl of stopping solution (1.0N HCl)/well. A450 nm value is read using an ELISA plate reader (SpectraMax 384plus, purchased from Molecular Device), and the results are shown in FIG. 11 and table 19.

Broadly, the EC50 is the concentration giving half of the maximal effect. Lower therefore signals a more potent agent. As a reminder, the EC50 (read off the curve) is the concentration needed to bring the measured effect to its halfway point. High values mean weaker potency, low ones greater potency.

B1: Murine anti-7E5 (antibody, V domains shown)
VH: EIQLQQSGPELVKPGASVKVSCKASGYSFTDYNMYWVKQSHGKSLEWIGYVDPSNGGTNYNQKFKGKATLTVDKSSSTAFMHLNSLTSEDSAVYYCARGFFDYWGQGTTLTVSS
VL: DIVMTQSPSSLTVTAGEKVTMSCKSSQSLLNSGNQKNYLTWYQQKPGQPPKLLIYWASNRESGVPDRFTGSGSGKDFTLTISSVQAEDLAVYYCQNDYRYPVTFGAGTKLELK
notes: Mouse hybridoma antibody; also called 7E5-2A9; murine anti-7E5-2
B1 gave a 50% effective concentration (EC50) in assay [1] of 2.9 nM. In addition, the competition rate in assay [2] was -2%; in [5] it was 66%; in [6] it was 85%; in assay [7], 71%; in assay [8], 23%; in [9], 70%. In assay [3], the “positive samples of 70 GBM samples” value was 24 samples. In addition, the binding result in assay [4] is listed as “no binding”.

B2: Chimeric antibody 75G7 (antibody, human IgG1, V domains shown)
VH: EVQLQQSGPELVKPGASVKIPCKASGYTFTDYNMDWVKQSHGKSLEWIGDINPNNGDTIYNQKFKGKATLTVDKSSSTAYMELRSLTSEDTAVYYCARGDYDGYYPVYYAMDYWGQGTSVTVSS
VL: ENVLTQSPAIMSASPGEKVTMTCRASSSVSSSYLHWYQQKSGASPKLWIFSTSNLAAGVPARFSGSGSGTSYSLTVSSVEAEDAATYYCQQYSGYPLTFGAGTKLELK
notes: also called c75G7C6; wild-type chimeric antibody c75G7C6
Regarding B2, in assay [10], the concentration for a half-maximal effect (EC50 (read off the curve)) was around 0.05 nM.

B3: Murine anti-75G7 (antibody, V domains shown)
VH: EVQLQQSGPELVKPGASVKIPCKASGYTFTDYNMDWVKQSHGKSLEWIGDINPNNGDTIYNQKFKGKATLTVDKSSSTAYMELRSLTSEDTAVYYCARGDYDGYYPVYYAMDYWGQGTSVTVSS
VL: ENVLTQSPAIMSASPGEKVTMTCRASSSVSSSYLHWYQQKSGASPKLWIFSTSNLAAGVPARFSGSGSGTSYSLTVSSVEAEDAATYYCQQYSGYPLTFGAGTKLELK
notes: Mouse hybridoma antibody; also called 75G7C6
B3 had a concentration giving a half-maximal response (EC50) in assay [1] of 4.8 nM. Further, the competition rate in assay [2] is -5%; in [5], -2%; in [6], 3%; in assay [7], -3%; in assay [8], 67%; in assay [9], 9%.

B4: Chimeric antibody 64F1 (antibody, human IgG1, V domains shown)
VH: QVQLQQSGAELARPGASVKMSCKASGYTFSSYTMHWAKQRPGQGLEWIGYINPSSGYTKYNQKFKDKATLTADKSSSTAYMQLSSLTSEDSIVYYCARGGGRGFAYWGQGTLVTVSA
VL: QIVLTQSPAIMSASPGERVTMTCSASSSVSYMYWYQQKPGSSPRLLIYDTSNLASGVPVRFSGSGSGTSYSLTISRVEAEDAATYYCQQWSSYSLTFGAGTKLELK
notes: also called 64F1F8 (chimeric)
For the molecule B4, the “EC50 (read off the curve)” value in assay [10] is around 0.01 nM.

B5: Murine anti-64F1 (antibody, V domains shown)
VH: QVQLQQSGAELARPGASVKMSCKASGYTFSSYTMHWAKQRPGQGLEWIGYINPSSGYTKYNQKFKDKATLTADKSSSTAYMQLSSLTSEDSIVYYCARGGGRGFAYWGQGTLVTVSA
VL: QIVLTQSPAIMSASPGERVTMTCSASSSVSYMYWYQQKPGSSPRLLIYDTSNLASGVPVRFSGSGSGTSYSLTISRVEAEDAATYYCQQWSSYSLTFGAGTKLELK
notes: Mouse hybridoma antibody; also called 64F1F8
B5 yielded an EC50 in assay [1] of 2 nM. Further, the competition rate in assay [2] is -5%; in assay [5] it was 69%; in assay [6], 80%; in assay [7] it was 72%; in assay [8], 13%; in assay [9], 81%. In addition, the “positive samples of 70 GBM samples” value in assay [3] is 24 samples.

B6: Murine anti-63A10 (antibody, V domains shown)
VH: QVQLQQSGAELARPGASVKMSCKASGYTFISFTMHWVKQRPGQGLEWIGYINPNSGYTKYNQKFKDKATLTAGQSSSTAYMQLSSLTSEDSAVYYCTRGGGRGFAYWGQGTLVTVSA
VL: DILMTQSPSSMSVSLGDTVTITCHASQDINSNIGWLQQKPGKSFKALIYHGTNLEDGVPSRFSGSGSGADYSLTISSLESEDFADYYCVQYAQFPFTFGSGTKLEIK
notes: Mouse hybridoma antibody; also called 63A10A7
In assay [1], B6 displayed an EC50 of 3.1 nM. Moreover, the competition rate is -3% in assay [2]; 79% in assay [5]; 82% in [6]; 73% in assay [7]; 20% in [8]; 89% in [9]. Further, the “positive samples of 70 GBM samples” value in assay [3] was 24 samples.
